Results reported in EP0662093B1.

Columns and labels:
[1] = target: peptide aa 302-316 of HIV-1MN gp120 (HIV-1 strain MN); assay: ELISA on coated peptide (250 ng/well); 9.50ng antibody
[2] = target: peptide aa 322-336 of HIV-1MN gp120 (HIV-1 strain MN); assay: as above
[3] = target: peptide aa 312-326 of HIV-1MN gp120 (HIV-1 strain MN); assay: as above
[4] = target: native HIV-1MN gp120 (HIV-1 strain MN) (UniProt P05877); assay: radioimmunoassay of hybridoma supernatant on HIV-1MN-infected against uninfected H9 cells
[5] = target: native HIV-1MN gp120 (HIV-1 strain MN) (UniProt P05877); assay: ELISA of hybridoma supernatant on membranes of HIV-1MN-infected against uninfected H9 cells
[6] = target: peptide aa 302-316 of HIV-1MN gp120 (HIV-1 strain MN); assay: ELISA on coated peptide (250 ng/well); 19.0ng antibody
[7] = target: peptide aa 322-336 of HIV-1MN gp120 (HIV-1 strain MN); assay: as above
[8] = target: peptide aa 312-326 of HIV-1MN gp120 (HIV-1 strain MN); assay: as above
[9] = target: peptide aa 302-316 of HIV-1MN gp120 (HIV-1 strain MN); assay: ELISA on coated peptide (250 ng/well); 4.75ng antibody
[10] = target: peptide aa 322-336 of HIV-1MN gp120 (HIV-1 strain MN); assay: as above
[11] = target: peptide aa 312-326 of HIV-1MN gp120 (HIV-1 strain MN); assay: as above
[12] = target: native HIV-1MN gp120 (HIV-1 strain MN) (UniProt P05877); assay: cell-based or functional assay
[13] = target: native HIV-1IIIB gp120 (HIV-1 strain IIIB) (UniProt P04578); assay: cell-based or functional assay
[14] = target: HIV-1 RF gp120 (HIV-1 strain RF) (UniProt P04579); assay: cell-based or functional assay
Sequence of UniProt P04579 (P04579 32-519 limits assumed): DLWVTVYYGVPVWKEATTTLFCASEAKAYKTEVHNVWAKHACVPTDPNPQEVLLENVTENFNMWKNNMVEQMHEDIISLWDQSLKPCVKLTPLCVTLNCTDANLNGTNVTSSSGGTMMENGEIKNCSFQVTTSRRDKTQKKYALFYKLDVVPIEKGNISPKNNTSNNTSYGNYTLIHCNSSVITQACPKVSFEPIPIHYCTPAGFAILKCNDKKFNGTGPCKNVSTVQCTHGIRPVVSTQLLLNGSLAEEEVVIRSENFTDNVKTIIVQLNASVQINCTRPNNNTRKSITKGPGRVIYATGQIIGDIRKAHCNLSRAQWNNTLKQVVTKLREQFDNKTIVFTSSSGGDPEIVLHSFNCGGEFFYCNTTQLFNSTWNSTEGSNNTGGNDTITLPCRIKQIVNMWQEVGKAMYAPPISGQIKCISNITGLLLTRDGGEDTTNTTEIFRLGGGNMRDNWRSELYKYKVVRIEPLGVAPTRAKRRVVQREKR

[15] = target: peptide aa 302-316 of HIV-1MN gp120 (HIV-1 strain MN); assay: ELISA on coated peptide (250 ng/well); 500ng MIgG
[16] = target: peptide aa 322-336 of HIV-1MN gp120 (HIV-1 strain MN); assay: ELISA on coated peptide (250 ng/well); 500ng MIgG
[17] = target: peptide aa 312-326 of HIV-1MN gp120 (HIV-1 strain MN); assay: ELISA on coated peptide (250 ng/well); 500ng MIgG

monoclonal antibody NM-01
Optical density at 650nm [1]: 0.024 OD 650nm
Optical density at 650nm [2]: 0.028 OD 650nm
Optical density at 650nm [3]: 0.827 OD 650nm
Ratio cpm inf/cpm uninf (RIA) [4]: 9.81
ratio infected/uninfected (ELISA, Run 1) [5]: 5.76
Optical density at 650nm [6]: 0.024 OD 650nm
Optical density at 650nm [7]: 0.03 OD 650nm
Optical density at 650nm [8]: 1.14 OD 650nm
Optical density at 650nm [9]: 0.024 OD 650nm
Optical density at 650nm [10]: 0.03 OD 650nm
Optical density at 650nm [11]: 0.781 OD 650nm
50% inhibition of viral infectivity (ID50), live MN virus, RT assay [12]: < 1 µg/mL
50% inhibition of viral infectivity (ID50), live MN virus, RT assay (run with F58/H3 and P4/D10) [12]: < 1 µg/mL
ID50, inhibition of syncytium formation by MN-infected H9 cells with C8166 cells [12]: 2 µg/mL
ID50, neutralization of live MN isolate, MT-2 assay [12]: 2 µg/mL
percent inhibition of syncytium formation by MN-infected cells at 25 µg antibody [12]: 85%
ID50, inhibition of syncytium formation by IIIB-infected H9 cells with C8166 cells [13]: 3 µg/mL
ID50, neutralization of live IIIB isolate, MT-2 assay [13]: 0.1 µg/mL
ID50, neutralization of live IIIB virus, RT assay [13]: 0.1 µg/mL
ID50, neutralization of live IIIB virus, RT assay (run with F58/H3 and P4/D10) [13]: 0.1 µg/mL
percent inhibition of syncytium formation by IIIB-infected cells at 25 µg antibody [13]: 85%
ID50, inhibition of live RF virus, RT assay [14]: 0.05 µg/mL
ID50, inhibition of syncytium formation by RF-infected cells [14]: 4 µg/mL
percent inhibition of syncytium formation by RF-infected cells at 25 µg antibody [14]: 59%

mouse IgG (antibody)
Optical density at 650nm [15]: 0.049 OD 650nm
Optical density at 650nm [16]: 0.042 OD 650nm
Optical density at 650nm [17]: 0.043 OD 650nm
